Measured values as given in patent US20060104978A1, “Methods and compositions for PDGF-C activation and inhibition” (LUDWIG INSTITUTE FOR CANCER RESEARCH, priority 2003, published 2006).

How the values were obtained:
latent PDGF-DD = target: T1, latent PDGF-DD (Homo sapiens, UniProt Q9GZP0); assay: Cotransfection assay in COS-1 cells: protease plus full-length PDGF-D; format: cell-based; settings: COS-1 conditioned medium, immunoblot
T1 construct: cotransfected with full-length PDGF-C (Li et al, 2000), full-length PDGF-D (Bergsten et al, 2001); expressed in transfected cells; host or cells: COS-1 cells
From the text: (§1) A cotransfection assay was established to identify serine proteases able to cleave and activate latent PDGF-CC. Expression plasmids encoding the relevant enzymes and full-length PDGF-C were cotransfected into COS-1 cells, and aliquots of the conditioned media from the transfectants were subjected to SDS-PAGE and immunoblotting using antibodies to the growth factor domain of PDGF-C. […] As a specificity control, the ability of tPA and NT to use full-length PDGF-DD as the substrate in the cotransfection assay was analysed. […] One difference in the latter results, as compared with the results from the cotransfection assay, was that purified tPA generated a second intermediate species of 32 kDa using latent PDGF-CC as the substrate. […]
To test the endogenous expression of PDGF-CC, subconfluent AG1523 cells and primary fibroblast cultures were cultured in serum-free DMEM overnight. […] In the case of the primary cultures, total protein concentration was measured and normalized (Bradford, 1976). […] PDGF-C and PDGF-D were detected by immunoblotting using affinity-purified polyclonal rabbit antibodies against PDGF-C (Li et al, 2000) and PDGF-D (Bergsten et al, 2001), respectively. The His6-tagged proteins were detected using an anti-His monoclonal antibody (C-terminal, Invitrogen). tPA was detected using sheep polyclonal antibodies against human tPA (ab9030, Abcam).

latent PDGF-CC = target: T2, latent PDGF-CC (Homo sapiens, UniProt Q9NRA1); assay: Cotransfection assay in COS-1 cells: protease plus full-length PDGF-C; format: cell-based; settings: COS-1 conditioned medium, immunoblot, 22 kDa species under reducing conditions
T2 construct: cotransfected with full-length PDGF-C (Li et al, 2000), full-length PDGF-D (Bergsten et al, 2001); expressed in transfected cells; host or cells: COS-1 cells
T2 sequence (Q9NRA1 23-345): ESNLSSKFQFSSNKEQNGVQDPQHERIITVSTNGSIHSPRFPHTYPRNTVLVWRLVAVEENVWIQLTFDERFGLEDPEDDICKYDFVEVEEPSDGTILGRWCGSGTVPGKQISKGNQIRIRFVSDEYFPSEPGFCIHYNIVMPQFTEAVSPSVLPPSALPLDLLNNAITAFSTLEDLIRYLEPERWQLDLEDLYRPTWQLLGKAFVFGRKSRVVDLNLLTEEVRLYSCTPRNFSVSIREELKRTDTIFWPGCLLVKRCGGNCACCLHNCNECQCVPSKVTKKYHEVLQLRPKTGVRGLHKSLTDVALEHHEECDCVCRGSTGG
From the text: as §1, with “substrate. It is possible that this intermediate is the result of digestion by plasmin contamination in the tPA preparation, since the size of the fragment is similar to that of plasmincleaved PDGF-CC previously reported (Li et al, 2000).” for “substrate.”
To test the endogenous expression of PDGF-CC, subconfluent AG1523 cells and primary fibroblast cultures were cultured in serum-free DMEM overnight. […] In the case of the primary cultures, total protein concentration was measured and normalized (Bradford, 1976). […]

B1: neurotrypsin: human neurotrypsin, trypsin-like serine protease cloned from AG1523 cells (protein)
chain: FDSVLNDSLHHSHRHSPPAGPHYPYYLPTQQRPPRTRPPPPLPRFPRPPRALPAQRPHALQAGHTPRPHPWGCPAGEPWVSVTDFGAPCLRWAEVPPFLERSPPASWAQLRGQRHNFCRSPDGAGRPWCFYGDARGKVDWGYCDCRHGSVRLRGGKNEFEGTVEVYASGVWGTVCSSHWDDSDASVICHQLQLGGKGIAKQTPFSGLGLIPIYWSNVRCRGDEENILLCEKDIWQGGVCPQKMAAAVTCSFSHGPTFPIIRLAGGSSVHEGRVELYHAGQWGTVCDDQWDDADAEVICRQLGLSGIAKAWHQAYFGEGSGPVMLDEVRCTGNELSIEQCPKSSWGEHNCGHKEDAGVSCTPLTDGVIRLAGGKGSHEGRLEVYYRGQWGTVCDDGWTELNTYVVCRQLGFKYGKQASANHFEESTGPIWLDDVSCSGKETRFLQCSRRQWGRHDCSHREDVSIACYPGGEGHRLSLGFPVRLMDGENKKEGRVEVFINGQWGTICDDGWTDKDAAVICRQLGYKGPARARTMAYFGEGKGPIHVDNVKCTGNERSLADCIKQDIGRHNCRHSEDAGVICDYFGKKASGNSNKESLSSVCGLRLLHRRQKRIIGGKNSLRGGWPWQVSLRLKSSHGDGRLLCGATLLSSCWVLTAAHCFKRYGNSTRSYAVRVGDYHTLVPEEFEEEIGVQQIVIHREYRPDRSDYDIALVRLQGPEEQCARFSSHVLPACLPLWRERPQKTASNCYITGWGDTGRAYSRTLQQAAIPLLPKRFCEERYKGRFTGRMLCAGNLHEHKRVDSCQGDSGGPLMCERPGESWVVYGVTSWGYGCGVKDSPGVYTKVSAFVPWIKSVTKL
Which “cleavage and activation of latent PDGF-DD by the coexpressed protease” value (latent PDGF-DD) does the source give for B1 here?
Its value is “neither of the two enzymes was able to cleave and activate latent PDGF-DD”.

What about the “cleavage of latent PDGF-CC by the coexpressed protease” value (latent PDGF-CC) of the same molecule?
The value was “lacked proteolytic activity toward latent PDGF-CC”.
